No end group written: not given here.
How the values were obtained:
[1] = system: nesfatin; experiment: Binding specificity of anti-nesfatin-1 antibody: Western blotting of rat brain extracts after pre-reaction with peptides; settings: 5 µg peptide per 1 µg anti-nesfatin-1 antibody, room temperature, 1 hour
Experimental: Western blotting analysis was carried out by the method described in Working Example 3 with the primary antibody being changed from anti-NAP polyclonal antibody to anti-nesfatin-1 antibody.

[2] = system: nesfatin; experiment: Specificity of immunohistochemical stain of rat hypothalamus with anti-nesfatin-1 antibody after pre-reaction with peptides; assay type: binding; settings: 5 µg peptide per 1 µg antibody
Experimental: In a method similar to that in Working Example 4, immunohistochemical stain was carried out on tissue sections of the rat brain each containing arcuate nucleus and paraventricular nucleus, in which anti-nesfatin-1 antibody (nesfatin-1 IgG; Working Example 10) was used in stead of a anti-NAP polyclonal antibody as the primary antibody.

[3] = Intraventricular administration of nesfatin-1 alone or leptin alone, amount of food intake; assay type: in vivo, rat; settings: 5 pmol nesfatin-1 alone, third ventricle; vs control group (physiological saline)
Experimental: The experimental condition was similar to that in Working Example 12, and for a group that received 5 pmol of nesfatin-1 alone into the third ventricle of the rat brain immediately before the start of the dark period and a group that received 5 pmol of nesfatin-1 and 8 µg of anti-nesfatin-1 antibody (nesfatin-1 IgG), the amount of food intake for 1 hour after administration was measured and compared to that for the control group (physiological saline alone was administered). Also, for a group that received only leptin (Rat leptin: R & D Systems, 598-LP-01M) (1 µg) which is known to have an activity of suppressing food intake by intraventricular administration and a group that received leptin and anti-nesfatin-1 antibody, its effect on food intake was also studied.

[4] = Continuous administration of nesfatin-1 into the rat ventricle, weight of adipose tissues and muscle; assay type: in vivo; settings: 5 pmol per day, third ventricle, osmotic pump, 10 days; vs physiological saline
Experimental: Nesfatin-1 (5 pmol per day) or physiological saline alone (the control group) was administered into the third ventricle of a rat using an osmotic pump for 10 consecutive days (5 and 4 rats were used per group). Intraventricular administration into rats by the osmotic pump was carried out in a manner similar to that in Working Example 13.
After the administration of nesfatin-1 or physiological saline alone for 10 days, each rat was sacrificed, dissected to excise all of the abdominal subcutaneous adipose tissue, the epididymal adipose tissue (these are white adipose tissue) and the retroperitoneal brown adipose tissue, and the weight of them was measured. Also, the gastrocnemial muscles of the bilateral hind legs were harvested and the weight of them was measured. From the weight of the tissues measured, their ratio to the body weight of each individual was determined (tissue weight/body weight, mg/g). For testing of significant difference, analysis of variance was used.

[5] = Continuous intraventricular administration of nesfatin-1 by osmotic pump, amount of food intake and body weight; assay type: in vivo, Wistar rats; settings: 5 pmol per day into the third ventricle, 10 consecutive days, vs physiological saline
Experimental: The administration of nesfatin-1 was carried out into the ventricle by an osmotic pump for 10 consecutive days. Among 8 week-old male Wistar rats (purchased from Nippon SLC), those individuals weighing 200-250 g were used. The rats received intraperitoneal administration of 40 mg/kg body weight of pentobarbital sodium for anesthesia. After the hair was removed from the head, they were fixed in a brain stereotaxic apparatus (David Kopf Instruments, Model 962) and the scalp was incised and a 23G needle (guide cannula) was implanted so that the tip reaches the third ventricle (2.5 mm behind the bregma, 9.5 mm from the surface). One week after implanting the guide cannula, the animals were subjected to the experiment. The osmotic pump used was Alzet's Model 2002. […] The measurement of the amount of food intake started from the day after the cannula and the osmotic pump were implanted, and the weight of the residual food was measured at 9 a.m. every day, and by determining the difference from the weight of the food on the previous day, the amount of food intake of the day (24 hours) was calculated. From day 6 after the start of administration, body weight was measured at the time of measuring the amount of food intake, and changes in body weight were also recorded.

[6] = Single administration of nesfatin-1, nesfatin-2, nesfatin-3 or nesfatin-2/3 into the third ventricle, amount of food intake; assay type: in vivo, Wistar rats
Experimental: Samples used for intracerebral administration were PBS alone (vehicle group), or nesfatin-1, nesfatin-2, nesfatin-3 or nesfatin-2/3 prepared in Working Example 10 each dissolved in PBS, and 25 pmol was administered per individual into the third ventricle immediately before the dark period. Rats used were Wistar rats (purchased from Nippon SLC) and were housed as in Working Example 6, and among 8-9 week-old male Wistar rats, those individuals weighing 200-250 g were selected and used (N=5). The technique of intraventricular administration and the measurement of the amount of food intake in rats were carried out in a method similar to those in Workig Example 6. In the measurement of the amount of food intake, the reduced amount of food at 1 hour after administration (0-1 hr) and […] (1-3 hrs) was determined as food intake.
In the same condition above, 1, 5 or 25 pmol of nesfatin-1 as a sample was administered per rat individual into the third ventricle immediately before the dark period. In this experiment, the amount of food intake was determined at 1 hour after administration (0-1 hr).
The experimental condition was similar to that in Working Example 12, and 5 pmol of nesfatin-1 was administered into the third ventricle of the rat brain immediately before the start of the dark period, the amount decreased of the food (the amount of food intake) during 1 hour immediately after administration (0-1 hr), during 2 hours from 1 hour after the administration (1-3 hr), during 3 hours from 3 hours after the administration (3-6 hr), and during 6 hours from 6 hours after the administration (6-12 hr) was measured as the amount of food intake. As the control group, the amount of food intake by individuals that received physiological saline alone was measured.

[7] = rat brain tissue containing the arcuate nucleus
[8] = rat brain tissue section containing the paraventricular nucleus

Q: For “Orexin-A: Human, Rat, Mouse, Bovine Orexin-A; Peptide Institute, Inc., 4346-s (QPLPDCCRQKTCSCRLYELLHGAGNHAAGILTL)”, which “47.5 kd band of nesfatin in Western blotting after pre-reaction of anti-nesfatin-1 antibody with the peptide” value (from here on “47.5 kd band of nesfatin”) [1] is on record?
A: did not disappear

Q: Which “47.5 kd band of nesfatin” value [1] does the source give for “NPY: Human, Rat Neuropeptide Y; Peptide Institute, Inc., 4158-v” here?
A: did not disappear

Q: What about the “immunological stain with anti-nesfatin-1 antibody after pre-reaction with the peptide” value [2, 7] of the same molecule?
A: does not disappear

Q: What about the “immunological stain with anti-nesfatin-1 antibody after pre-reaction with the peptide” value [2, 8] of the same molecule?
A: does not disappear

Q: Which results are given for “CART: Rat Cocaine- and Amphetamine-Regulated Transcript 55-102; Peptide Institute, Inc., 4351-s (IPIYEKKYGQVPMCDAGEQCAVRKGARIGKLCDCPRGTSCNSFLLKCL; ends and bridges not checked; cysteine pairing not given here)”?
A: immunological stain with anti-nesfatin-1 antibody after pre-reaction with the peptide [2, 7]: does not disappear; immunological stain with anti-nesfatin-1 antibody after pre-reaction with the peptide [2, 8]: does not disappear

Q: For “MCH: Human Melanin-Concentrating Hormone; Peptide Institute, Inc., 4369-v”, which “47.5 kd band of nesfatin” value [1] is on record?
A: did not disappear

B1: recombinant nesfatin: recombinant matured mouse nesfatin (SEQ ID NO: 26) from E. coli GST-NEFA fusion protein treated with protease (protein)
chain: GSPIDVDKTKVHNTEPVENARIEPPDTGLYYDEYLKQVIEVLETDPHFREKLQKADIEEIRSGRLSQELDLVSHKVRTRLDELKRQEVGRLRMLIKAKLDALQDTGMNHHLLLKQFEHLNHQNPNTFESRDLDMLIKAATADLEQYDRTRHEEFKKYEMMKEHERREYLKTLSEEKRKEEESKFEEMKRKHEDHPKVNHPGSKDQLKEVWEETDGLDPNDFDPKTFFKLHDVNNDGFLDEQELEALFTRELEKVYNPQNAEDDMIEMEEERLRMREHVMSEIDNNKDRLVTLEEFLRATEKKEFLEPDSWETLDQQQLFTEDELKEYESIIAIQENELKKRAEELQKQKEDLQRQHDHLEAQKQEYHQAVQHLEQKKLQQGIAPSGPAGELKFEPHT
Q: For B1, which “amount of food intake for 1 hour after administration” value [3] is on record?
A: significantly decreased

B2: nesfatin-1: peptide of 82 residues, amino acid Nos. 25 to 106 of nesfatin; rat nesfatin-1 (SEQ ID NO: 15) by solid-phase synthesis (peptide, UniProt Q9JI85 25-106, looked up)
Nesfatin-1: VPIDVDKTKVHNVEPVESARIEPPDTGLYYDEYLKQVIEVLETDPHFREKLQKADIEEIRSGRLSQELDLVSHKVRTRLDEL
modifications: Nesfatin-1
Q: What does the source list for B2?
A: ratio of tissue weight to body weight, abdominal subcutaneous adipose tissue [4]: significant decreases in the ratio of tissue weight to body weight; ratio of tissue weight to body weight, epididymal adipose tissue [4]: significant decreases in the ratio of tissue weight to body weight; ratio of tissue weight to body weight, mesenteric adipose tissue [4]: significant decreases in the ratio of tissue weight to body weight; ratio of tissue weight to body weight, retroperitoneal adipose tissue [4]: tended to decrease but no significant difference; total tissue weight to the body weight, brown adipose tissue [4]: no significant difference; total tissue weight to the body weight, gastrocnemial muscle [4]: no significant difference; amount of food intake of the day (24 hours) [5]: decrease in the amount of food intake was noted from day 1; rate of increase in body weight [5]: significantly declined; amount of food intake ([6]; 5 pmol, third ventricle, 0-1 hr, vs saline group (0)): significant decrerased amount of food intake; amount of food intake ([6]; 25 pmol into the third ventricle immediately before the dark period, 0-1 hr, vs control (PBS)): marked effect on the suppression of feeding; amount of food intake ([6]; 25 pmol into the third ventricle immediately before the dark period, 1-3 hr, vs control (PBS)): marked effect on the suppression of feeding; amount of food intake ([6]; 25 pmol, third ventricle, 0-1 hr, dose experiment, vs saline group (0)): significant decrerased amount of food intake; amount of food intake ([6]; 1, 5 or 25 pmol per rat, third ventricle, 0-1 hr, dose relation vs saline group (0)): decreased amount of food intake, with the increased amount of the administered nesfation-1; amount of food intake ([6]; Working Example 27, 5 pmol, third ventricle, 0-1 hr, p<0.01 vs control): Significant decreases in the amount of food intake; amount of food intake ([6]; Working Example 27, 5 pmol, third ventricle, 1-3 hr, p<0.01 vs control): Significant decreases in the amount of food intake; amount of food intake ([6]; Working Example 27, 5 pmol, third ventricle, 3-6 hr, p<0.01 vs control): Significant decreases in the amount of food intake; amount of food intake ([6]; Working Example 27, 5 pmol, third ventricle, 6-12 hr, p<0.01 vs control): an increase in the amount of food intake; immunological stain with anti-nesfatin-1 antibody after pre-reaction with the peptide [2, 7]: the stain disappears; immunological stain with anti-nesfatin-1 antibody after pre-reaction with the peptide [2, 8]: the stain disappears
